What was measured:
Assay in all cases: cell-based or functional assay
[1] = target: 980601 (BX): Purified preparation of Danisco's new bacterial xylanase expressed in E. coli (Bacillus subtilis) (UniProt P18429)
[2] = target: 980603 (Röhm): Purified preparation of Frimond's Belase xylanase (identical to Röhm's) (Bacillus subtilis)
[3] = target: 980903 (XM1): Purified mutant of Bacillus sub. wild type xylanase expressed in E. coli

Question: What does the source list for “endogenous endo-β-1,4-xylanase inhibitor from wheat flour”?
Answer: Difference, % (average rest activity of 980601 against 980603) [1]: 25.6%; Inhibation, % (flour 98002) [1]: 67%; Inhibation, % (flour 98026) [1]: 75%; OD 590 (+inhibitor), xylanase activity on Xylazyme [1]: 0.165 OD 590; Residual activity, % [1]: 24.4%; Rest act., % (Avg) [1]: 29%; Rest act., % (flour 98002) [1]: 33%; Rest act., % (flour 98026) [1]: 25%; Vmax (Lineweaver-Burk plot, relative OD 590, with and without inhibitor) (relative OD 590) [1]: 1.19; Inhibation, % (flour 98002) [2]: 60.8%; Inhibation, % (flour 98026) [2]: 61.3%; Rest act., % (Avg) [2]: 39%; Rest act., % (flour 98002) [2]: 39.2%; Rest act., % (flour 98026) [2]: 38.7%; difference in inhibition between XM1 and XM2 [3]: 250%; residual activity of XM1 relative to rest activity of XM2 [3]: 2.5 times

Reference: US20040234998A1
